Measured values reported in US20170015742A1 (published 2017).
Substitutions are numbered along the chain they refer to.

B1: 4G8.2-GS10-9E8.4 (bispecific antibody, human IgG1, kappa, L234A L235A)
heavy: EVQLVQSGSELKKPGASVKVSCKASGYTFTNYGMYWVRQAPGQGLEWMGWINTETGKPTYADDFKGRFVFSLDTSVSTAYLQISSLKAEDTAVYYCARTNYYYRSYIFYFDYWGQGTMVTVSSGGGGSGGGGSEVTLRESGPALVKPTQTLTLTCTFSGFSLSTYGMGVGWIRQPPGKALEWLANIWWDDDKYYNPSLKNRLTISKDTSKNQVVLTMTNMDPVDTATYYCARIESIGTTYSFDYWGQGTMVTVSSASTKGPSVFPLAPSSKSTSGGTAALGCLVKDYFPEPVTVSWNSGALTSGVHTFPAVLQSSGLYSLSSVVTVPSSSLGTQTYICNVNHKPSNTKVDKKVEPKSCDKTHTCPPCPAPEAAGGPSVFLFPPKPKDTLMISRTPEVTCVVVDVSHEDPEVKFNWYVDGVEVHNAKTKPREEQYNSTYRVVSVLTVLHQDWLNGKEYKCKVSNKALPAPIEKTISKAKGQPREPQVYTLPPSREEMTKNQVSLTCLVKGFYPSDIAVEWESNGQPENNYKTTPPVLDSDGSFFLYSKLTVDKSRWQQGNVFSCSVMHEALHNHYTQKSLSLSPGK
light: ATQLTQSPSLSASVGDRVTITCRASESVSTHMHWYQQKPGKQPKLLIYGASNLESGVPSRFSGSGSGTDFTLTISSLQPEDFATYFCQQSWNDPFTFGQGTKLEIKRGGSGGGGSGEFVLTQSPGTLSLSPGERATLSCERSSGDIGDSYVSWYQQKPGQAPRLVIYADDQRPSGIPDRFSGSGSGTDFTLTISRLEPEDFAVYYCQSYDINIDIVFGGGTKVEIKRTVAAPSVFIFPPSDEQLKSGTASVVCLLNNFYPREAKVQWKVDNALQSGNSQESVTEQDSKDSTYSLSSTLTLSKADYEKHKVYACEVTHQGLSSPVTKSFNRGEC
B2: 4G8.5-GS10-9E8.4 (bispecific antibody, human IgG1, kappa, L234A L235A)
heavy: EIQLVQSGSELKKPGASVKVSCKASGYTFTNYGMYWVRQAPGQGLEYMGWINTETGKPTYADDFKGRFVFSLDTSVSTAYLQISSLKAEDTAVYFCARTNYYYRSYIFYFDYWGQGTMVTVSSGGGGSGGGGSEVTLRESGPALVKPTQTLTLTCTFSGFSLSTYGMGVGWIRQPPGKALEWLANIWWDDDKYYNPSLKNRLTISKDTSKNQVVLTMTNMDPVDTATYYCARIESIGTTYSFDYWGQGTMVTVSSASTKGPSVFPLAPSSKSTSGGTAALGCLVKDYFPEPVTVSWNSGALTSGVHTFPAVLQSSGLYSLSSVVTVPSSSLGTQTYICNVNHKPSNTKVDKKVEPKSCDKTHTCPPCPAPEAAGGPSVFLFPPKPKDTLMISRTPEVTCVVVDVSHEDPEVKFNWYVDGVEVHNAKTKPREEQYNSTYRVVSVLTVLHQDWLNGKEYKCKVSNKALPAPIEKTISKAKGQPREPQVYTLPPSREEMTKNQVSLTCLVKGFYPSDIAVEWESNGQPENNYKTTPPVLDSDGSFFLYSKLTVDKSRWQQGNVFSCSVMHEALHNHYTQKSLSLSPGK
light: B1 light
B3: AB014-GS15-9E8.4 VH-VK (bispecific antibody, human IgG1, kappa, L234A L235A)
heavy: EVQLVESGGGLVQPGGSLRLSCAASGYTFTNYGMNWVRQAPGKGLEWVGWINTYTGEPTYAADFKRRFTFSLDTSKSTAYLQMNSLRAEDTAVYYCAKYPHYYGSSHWYFDVWGQGTLVTVSSASTKGPSVFPLAPSSKSTSGGTAALGCLVKDYFPEPVTVSWNSGALTSGVHTFPAVLQSSGLYSLSSVVTVPSSSLGTQTYICNVNHKPSNTKVDKKVEPKSCDKTHTCPPCPAPEAAGGPSVFLFPPKPKDTLMISRTPEVTCVVVDVSHEDPEVKFNWYVDGVEVHNAKTKPREEQYNSTYRVVSVLTVLHQDWLNGKEYKCKVSNKALPAPIEKTISKAKGQPREPQVYTLPPSREEMTKNQVSLTCLVKGFYPSDIAVEWESNGQPENNYKTTPPVLDSDGSFFLYSKLTVDKSRWQQGNVFSCSVMHEALHNAYTQKSLSLSPGKGGSGGGGSGGGGSGGEVTLRESGPALVKPTQTLTLTCTFSGFSLSTYGMGVGWIRQPPGKALEWLANIWWDDDKYYNPSLKNRLTISKDTSKNQVVLTMTNMDPVDTATYYCARIESIGTTYSFDYWGQGTMVTVSSGGGGSGGGGSGGGGSEIVLTQSPGTLSLSPGERATLSCERSSGDIGDSYVSWYQQKPGQAPRLVIYADDQRPSGIPDRFSGSGSGTDFTLTISRLEPEDFAVYYCQSYDINIDIVFGGGTKVEIK
light: not shown
B4: 4G8.4-GS10-9E8.4 (bispecific antibody, human IgG1, kappa, L234A L235A)
heavy: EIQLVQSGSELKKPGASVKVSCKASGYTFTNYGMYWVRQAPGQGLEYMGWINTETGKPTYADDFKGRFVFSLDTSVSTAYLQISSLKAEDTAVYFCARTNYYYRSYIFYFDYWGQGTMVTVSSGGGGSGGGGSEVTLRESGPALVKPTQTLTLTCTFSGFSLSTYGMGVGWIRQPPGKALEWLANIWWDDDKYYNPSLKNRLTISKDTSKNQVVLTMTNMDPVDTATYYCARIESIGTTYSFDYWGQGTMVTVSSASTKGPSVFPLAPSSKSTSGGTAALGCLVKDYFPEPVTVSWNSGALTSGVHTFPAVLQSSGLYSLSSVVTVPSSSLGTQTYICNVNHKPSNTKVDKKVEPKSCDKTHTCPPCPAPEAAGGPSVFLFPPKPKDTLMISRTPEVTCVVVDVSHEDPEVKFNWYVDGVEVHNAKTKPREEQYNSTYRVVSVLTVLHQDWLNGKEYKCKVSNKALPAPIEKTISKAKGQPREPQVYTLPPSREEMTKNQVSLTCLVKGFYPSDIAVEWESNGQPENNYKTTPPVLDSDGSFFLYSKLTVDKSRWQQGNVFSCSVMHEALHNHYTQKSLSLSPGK
light: AIQLTQSPSSLSASVGDRVTITCRASESVSTHMHWYQQKPGKAPKLLIYGASNLESGVPSRFSGSGSGTDFTLTISSLQPEDFATYYCQQSWNDPFTFGQGTKLEIKRGGSGGGGSGEFVLTQSPGTLSLSPGERATLSCERSSGDIGDSYVSWYQQKPGQAPRLVIYADDQRPSGIPDRFSGSGSGTDFTLTISRLEPEDFAVYYCQSYDINIDIVFGGGTKVEIKRTVAAPSVFIFPPSDEQLKSGTASVVCLLNNFYPREAKVQWKVDNALQSGNSQESVTEQDSKDSTYSLSSTLTLSKADYEKHKVYACEVTHQGLSSPVTKSFNRGEC
B5: AB014-GS10-9E8.4 VK-VH (bispecific antibody, human IgG1, kappa, L234A L235A)
heavy: EVQLVESGGGLVQPGGSLRLSCAASGYTFTNYGMNWVRQAPGKGLEWVGWINTYTGEPTYAADFKRRFTFSLDTSKSTAYLQMNSLRAEDTAVYYCAKYPHYYGSSHWYFDVWGQGTLVTVSSASTKGPSVFPLAPSSKSTSGGTAALGCLVKDYFPEPVTVSWNSGALTSGVHTFPAVLQSSGLYSLSSVVTVPSSSLGTQTYICNVNHKPSNTKVDKKVEPKSCDKTHTCPPCPAPEAAGGPSVFLFPPKPKDTLMISRTPEVTCVVVDVSHEDPEVKFNWYVDGVEVHNAKTKPREEQYNSTYRVVSVLTVLHQDWLNGKEYKCKVSNKALPAPIEKTISKAKGQPREPQVYTLPPSREEMTKNQVSLTCLVKGFYPSDIAVEWESNGQPENNYKTTPPVLDSDGSFFLYSKLTVDKSRWQQGNVFSCSVMHEALHNAYTQKSLSLSPGKGGSGGGGSGGEIVLTQSPGTLSLSPGERATLSCERSSGDIGDSYVSWYQQKPGQAPRLVIYADDQRPSGIPDRFSGSGSGTDFTLTISRLEPEDFAVYYCQSYDINIDIVFGGGTKVEIKGGGGSGGGGSGGGGSEVTLRESGPALVKPTQTLTLTCTFSGFSLSTYGMGVGWIRQPPGKALEWLANIWWDDDKYYNPSLKNRLTISKDTSKNQVVLTMTNMDPVDTATYYCARIESIGTTYSFDYWGQGTMVTVSS
light: not shown
B6: 4G8.12-GS10-9E8.4 (bispecific antibody, human IgG1, kappa, L234A L235A)
heavy: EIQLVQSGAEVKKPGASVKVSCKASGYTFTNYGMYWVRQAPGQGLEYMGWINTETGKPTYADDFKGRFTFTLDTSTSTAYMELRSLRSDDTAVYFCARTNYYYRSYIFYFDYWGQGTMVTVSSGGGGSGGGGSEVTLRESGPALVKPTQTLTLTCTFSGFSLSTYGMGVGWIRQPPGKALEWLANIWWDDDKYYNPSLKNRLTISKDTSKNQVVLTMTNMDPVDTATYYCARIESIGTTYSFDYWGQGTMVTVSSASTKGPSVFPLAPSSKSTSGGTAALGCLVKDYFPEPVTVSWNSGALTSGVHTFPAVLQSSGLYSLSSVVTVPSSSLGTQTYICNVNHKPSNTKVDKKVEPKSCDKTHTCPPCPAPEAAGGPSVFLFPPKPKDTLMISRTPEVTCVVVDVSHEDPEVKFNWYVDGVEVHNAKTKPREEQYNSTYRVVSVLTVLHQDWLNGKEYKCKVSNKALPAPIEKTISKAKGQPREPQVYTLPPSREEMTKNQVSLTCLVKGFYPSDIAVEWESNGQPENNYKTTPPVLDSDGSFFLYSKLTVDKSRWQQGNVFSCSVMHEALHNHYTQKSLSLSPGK
light: DTVLTQSPATLSLSPGERATLSCRASESVSTHMHWYQQKPGQAPRLLIYGASNLESGVPARFSGSGSGTDFTLTISSLEPEDFAVYFCQQSWNDPFTFGQGTKLEIKRGGSGGGGSGEFVLTQSPGTLSLSPGERATLSCERSSGDIGDSYVSWYQQKPGQAPRLVIYADDQRPSGIPDRFSGSGSGTDFTLTISRLEPEDFAVYYCQSYDINIDIVFGGGTKVEIKRTVAAPSVFIFPPSDEQLKSGTASVVCLLNNFYPREAKVQWKVDNALQSGNSQESVTEQDSKDSTYSLSSTLTLSKADYEKHKVYACEVTHQGLSSPVTKSFNRGEC
B7: 4G8.13-GS10-9E8.4 (bispecific antibody, human IgG1, kappa, L234A L235A)
heavy: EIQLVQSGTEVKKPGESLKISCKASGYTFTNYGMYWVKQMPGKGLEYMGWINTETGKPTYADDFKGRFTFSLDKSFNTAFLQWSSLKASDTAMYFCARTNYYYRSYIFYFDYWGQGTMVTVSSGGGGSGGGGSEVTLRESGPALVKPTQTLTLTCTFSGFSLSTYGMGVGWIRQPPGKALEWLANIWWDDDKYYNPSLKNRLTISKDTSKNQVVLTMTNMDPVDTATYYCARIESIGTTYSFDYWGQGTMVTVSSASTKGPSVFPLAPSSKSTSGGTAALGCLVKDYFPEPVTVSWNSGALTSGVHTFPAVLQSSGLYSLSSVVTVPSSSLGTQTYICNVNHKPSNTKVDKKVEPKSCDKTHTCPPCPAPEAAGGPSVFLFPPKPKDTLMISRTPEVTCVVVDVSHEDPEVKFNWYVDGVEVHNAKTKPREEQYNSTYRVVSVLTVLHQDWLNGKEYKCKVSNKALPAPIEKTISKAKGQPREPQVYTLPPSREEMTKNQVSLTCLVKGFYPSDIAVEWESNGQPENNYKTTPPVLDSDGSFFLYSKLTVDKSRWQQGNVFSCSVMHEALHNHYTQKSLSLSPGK
light: B6 light with D1E, L13V, E79Q, P80S, K103R
B8: 4G8.14-GS10-9E8.4 (bispecific antibody, human IgG1, kappa, L234A L235A)
heavy: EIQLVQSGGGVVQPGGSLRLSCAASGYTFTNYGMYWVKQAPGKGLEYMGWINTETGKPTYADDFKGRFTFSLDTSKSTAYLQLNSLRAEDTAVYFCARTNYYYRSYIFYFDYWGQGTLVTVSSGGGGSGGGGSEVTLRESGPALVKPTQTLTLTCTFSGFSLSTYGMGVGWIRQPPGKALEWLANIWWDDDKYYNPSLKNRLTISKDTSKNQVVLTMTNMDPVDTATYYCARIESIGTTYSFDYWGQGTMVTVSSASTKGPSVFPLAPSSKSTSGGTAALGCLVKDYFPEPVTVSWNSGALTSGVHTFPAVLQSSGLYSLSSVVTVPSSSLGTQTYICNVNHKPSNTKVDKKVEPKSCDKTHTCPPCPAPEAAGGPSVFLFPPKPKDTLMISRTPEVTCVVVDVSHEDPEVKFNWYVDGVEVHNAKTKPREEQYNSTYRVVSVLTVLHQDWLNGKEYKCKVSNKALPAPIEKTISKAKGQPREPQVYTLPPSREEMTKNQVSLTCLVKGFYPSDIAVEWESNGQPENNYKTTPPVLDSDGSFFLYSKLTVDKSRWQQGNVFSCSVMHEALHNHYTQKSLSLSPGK
light: B6 light with A9S, L13A, L21I, R45K, A60S, G66R, E79Q, L104V
B9: 4G8.5_GS_CL-33675 (bispecific antibody, human IgG1, kappa, L234A L235A)
heavy: EIQLVQSGSELKKPGASVKVSCKASGYTFTNYGMYWVRQAPGQGLEYMGWINTETGKPTYADDFKGRFVFSLDTSVSTAYLQISSLKAEDTAVYFCARTNYYYRSYIFYFDYWGQGTMVTVSSGGGGSGGGGSEVTLRESGPALVKPTQTLTLTCTFSGFSLSTYGMGVGWIRQPPGKALEWLANIWWDDDKYYNPSLKNRLTISKDTSKNQVVLTMTNMDPVDTATYYCARIESSGPKYSFDYWGQGTMVTVSSASTKGPSVFPLAPSSKSTSGGTAALGCLVKDYFPEPVTVSWNSGALTSGVHTFPAVLQSSGLYSLSSVVTVPSSSLGTQTYICNVNHKPSNTKVDKKVEPKSCDKTHTCPPCPAPEAAGGPSVFLFPPKPKDTLMISRTPEVTCVVVDVSHEDPEVKFNWYVDGVEVHNAKTKPREEQYNSTYRVVSVLTVLHQDWLNGKEYKCKVSNKALPAPIEKTISKAKGQPREPQVYTLPPSREEMTKNQVSLTCLVKGFYPSDIAVEWESNGQPENNYKTTPPVLDSDGSFFLYSKLTVDKSRWQQGNVFSCSVMHEALHNAYTQKSLSLSPGK
light: ATQLTQSPSLSASVGDRVTITCRASESVSTHMHWYQQKPGKQPKLLIYGASNLESGVPSRFSGSGSGTDFTLTISSLQPEDFATYFCQQSWNDPFTFGQGTKLEIKGGSGGGGSGGEIVLTQSPGTLSLSPGERATLSCRASSGSIWYSFVSWYQQKPGQAPRLLIYADDQRASGIPDRFSGSGSGTDFTLTISRLEPEDFAVYYCQSYGINIDVVFGGGTKVEIKRTVAAPSVFIFPPSDEQLKSGTASVVCLLNNFYPREAKVQWKVDNALQSGNSQESVTEQDSKDSTYSLSSTLTLSKADYEKHKVYACEVTHQGLSSPVTKSFNRGEC
B10: AB014-GS10-9E8.4 VH-VK (bispecific antibody, human IgG1, kappa, L234A L235A)
heavy: EVQLVESGGGLVQPGGSLRLSCAASGYTFTNYGMNWVRQAPGKGLEWVGWINTYTGEPTYAADFKRRFTFSLDTSKSTAYLQMNSLRAEDTAVYYCAKYPHYYGSSHWYFDVWGQGTLVTVSSASTKGPSVFPLAPSSKSTSGGTAALGCLVKDYFPEPVTVSWNSGALTSGVHTFPAVLQSSGLYSLSSVVTVPSSSLGTQTYICNVNHKPSNTKVDKKVEPKSCDKTHTCPPCPAPEAAGGPSVFLFPPKPKDTLMISRTPEVTCVVVDVSHEDPEVKFNWYVDGVEVHNAKTKPREEQYNSTYRVVSVLTVLHQDWLNGKEYKCKVSNKALPAPIEKTISKAKGQPREPQVYTLPPSREEMTKNQVSLTCLVKGFYPSDIAVEWESNGQPENNYKTTPPVLDSDGSFFLYSKLTVDKSRWQQGNVFSCSVMHEALHNAYTQKSLSLSPGKGGSGGGGSGGEVTLRESGPALVKPTQTLTLTCTFSGFSLSTYGMGVGWIRQPPGKALEWLANIWWDDDKYYNPSLKNRLTISKDTSKNQVVLTMTNMDPVDTATYYCARIESIGTTYSFDYWGQGTMVTVSSGGGGSGGGGSGGGGSEIVLTQSPGTLSLSPGERATLSCERSSGDIGDSYVSWYQQKPGQAPRLVIYADDQRPSGIPDRFSGSGSGTDFTLTISRLEPEDFAVYYCQSYDINIDIVFGGGTKVEIK
light: not shown
B11: 4G8.5_GS_3E2.1 (bispecific antibody, human IgG1, kappa, L234A L235A)
heavy: EIQLVQSGSELKKPGASVKVSCKASGYTFTNYGMYWVRQAPGQGLEYMGWINTETGKPTYADDFKGRFVFSLDTSVSTAYLQISSLKAEDTAVYFCARTNYYYRSYIFYFDYWGQGTMVTVSSGGGGSGGGGSEVQLVQSGAEVKKPGSSVKVSCKASGYTFTESYMYWVKQAPGQGLELIGRIDPEDGSTDYVEKFKNKATLTADKSTSTAYMELSSLRSEDTAVYFCARFGARSYFYPMDAWGQGTTVTVSSASTKGPSVFPLAPSSKSTSGGTAALGCLVKDYFPEPVTVSWNSGALTSGVHTFPAVLQSSGLYSLSSVVTVPSSSLGTQTYICNVNHKPSNTKVDKKVEPKSCDKTHTCPPCPAPEAAGGPSVFLFPPKPKDTLMISRTPEVTCVVVDVSHEDPEVKFNWYVDGVEVHNAKTKPREEQYNSTYRVVSVLTVLHQDWLNGKEYKCKVSNKALPAPIEKTISKAKGQPREPQVYTLPPSREEMTKNQVSLTCLVKGFYPSDIAVEWESNGQPENNYKTTPPVLDSDGSFFLYSKLTVDKSRWQQGNVFSCSVMHEALHNAYTQKSLSLSPGK
light: ATQLTQSPSLSASVGDRVTITCRASESVSTHMHWYQQKPGKQPKLLIYGASNLESGVPSRFSGSGSGTDFTLTISSLQPEDFATYFCQQSWNDPFTFGQGTKLEIKGGSGGGGSGGETVLTQSPATLSLSPGERATLSCRASESVSTLMHWYQQKPGQQPRLLIYGASNLESGVPARFSGSGSGTDFTLTISSLEPEDFAVYFCQQSWNDPWTFGGGTKVEIKRTVAAPSVFIFPPSDEQLKSGTASVVCLLNNFYPREAKVQWKVDNALQSGNSQESVTEQDSKDSTYSLSSTLTLSKADYEKHKVYACEVTHQGLSSPVTKSFNRGEC

Target: recombinant human VEGF165 (human, UniProt P15692 207-395)
Test: cell-based or functional assay

Sequence of recombinant human VEGF165 (P15692 other isoform, or with tags, fused parts or gaps limits assumed): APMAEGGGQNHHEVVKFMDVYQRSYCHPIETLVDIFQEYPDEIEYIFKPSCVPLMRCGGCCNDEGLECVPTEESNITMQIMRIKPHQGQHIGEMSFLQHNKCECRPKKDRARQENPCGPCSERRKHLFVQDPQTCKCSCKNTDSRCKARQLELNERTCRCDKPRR

Potency IC50 (nM) HMVEC-d hVEGF165 [nM]	Binder
0.221	B1
0.079	B2
0.13	B3
0.281	B4
0.086	B5
0.079	B6
0.907	B7
0.113	B8
0.076	B9
0.095	B10
0.072	B11

Target: recombinant human PDGF-BB (human, UniProt P01127 82-190)
Test: cell-based or functional assay

Sequence of recombinant human PDGF-BB (P01127 82-190 limits assumed): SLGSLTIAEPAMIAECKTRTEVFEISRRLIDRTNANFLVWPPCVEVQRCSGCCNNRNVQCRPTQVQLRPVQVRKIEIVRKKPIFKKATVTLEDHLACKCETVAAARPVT

Potency IC50 (nM) NIH-3T3 hPDGF-BB [nM]	Binder
> 5	B1
> 5	B2
0.066	B3
1.33	B4
0.074	B5
0.227	B6
0.255	B7
0.459	B8
0.05	B9
0.063	B10
1.4	B11
